B1: IMGN779 (anti-huCD33 antibody huMy9-6 conjugated to DGN462 via a cleavable disulfide sulfo-SPDB linker) (antibody, from a related filing, V domains shown)
VH: QVQLQQPGAEVVKPGASVKMSCKASGYTFTSYYIHWIKQTPGQGLEWVGVIYPGNDDISYNQKFQGKATLTADKSSTTAYMQLSSLTSEDSAVYYCAREVRLRYFDVWGQGTTVTVSS
VL: EIVLTQSPGSLAVSPGERVTMSCKSSQSVFFSSSQKNYLAWYQQIPGQSPRLLIYWASTRESGVPDRFTGSGSGTDFTLTISSVQPEDLAIYYCHQYLSSRTFGQGTKLEIKR

Experiments:
[1] = target: CD33 protein (human), on primary patient AML cells and AML cell lines (human) (UniProt P20138); assay: cell-based or functional assay
Sequence of UniProt P20138 (P20138 18-364): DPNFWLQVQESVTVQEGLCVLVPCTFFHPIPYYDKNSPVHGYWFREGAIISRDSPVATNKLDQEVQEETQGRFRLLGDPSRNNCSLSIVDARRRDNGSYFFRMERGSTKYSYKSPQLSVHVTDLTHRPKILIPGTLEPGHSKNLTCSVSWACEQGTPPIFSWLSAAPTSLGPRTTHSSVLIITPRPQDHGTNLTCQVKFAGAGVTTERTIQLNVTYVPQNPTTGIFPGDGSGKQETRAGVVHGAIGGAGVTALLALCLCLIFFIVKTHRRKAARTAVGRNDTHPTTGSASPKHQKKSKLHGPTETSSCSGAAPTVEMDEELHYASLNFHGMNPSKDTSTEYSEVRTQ

[2] = target: CD33 protein (human), on primary patient AML cells and AML cell lines (human) (UniProt P20138); assay: cell-based or functional assay; remark: listed apart in the source

Row | Molecule | IC50, cytotoxicity against primary patient AML cells [1] [pM] | IC50, cytotoxicity on MOLM-13 FLT3-ITD AML cell line (WST-8 assay) [2] [pM] | IC50, cytotoxicity on MV4-11 FLT3-ITD AML cell line (WST-8 assay) [2] [pM] | IC50, cytotoxicity on a panel of 21 AML cell lines (WST-8 assay) [2] [pM] | IC50, cytotoxicity on a panel of 21 AML cell lines (WST-8 assay), median [2] [pM] | IC50, in vitro cytotoxicity against primary patient AML cells [2] [pM]
1 | non-binding chimeric IgG1-DGN462 conjugate (antibody) | > 1000 |  |  |  |  | 
2 | B1 |  | 5 | 2 | 2 to 3000 | 70 | 10 to 1500

— patent US20170080102A1
